Data reported in article PMC11093360.

Legend:
M2trunk(1–283) (human) = M2trunk(1–283) (human) (UniProt P08172)
M2trunk(1–228) (human) = M2trunk(1–228) (human) (UniProt P08172)

Row | Bmax of [3H]NMS binding sites in COS-7 cells cotransfected with both fragments (M2trunk(1–283) alone: N.B.) (M2trunk(1–283) (human)) | Maximum inhibition of forskolin stimulated cAMP accumulation (%) by carbachol in COS-7 cells cotransfected with both fragments (M2trunk(1–283) (human)) | Bmax of [3H]NMS binding sites in COS-7 cells cotransfected with both fragments (M2trunk(1–228) alone: N.B.) (M2trunk(1–228) (human)) | Maximum inhibition of forskolin stimulated cAMP accumulation (%) by carbachol in COS-7 cells cotransfected with both fragments (M2trunk(1–228) (human)) | Substance
1 | 480 fmol/mg | 37% | – | – | M2tail(M-281-466) (from UniProt P08172 281-466) (domain or fragment)
2 | – | – | 70 fmol/mg | 29% | M2tail(368–466) (from UniProt P08172 368-466) (domain or fragment)
